Experimental data as given in PMC8894703, “ZNF191 alters DNA methylation and activates the PI3K‐AKT pathway in hepatoma cells via transcriptional regulation of DNMT1”.

B1: DNMT1(nt-240) EMSA probe, 30 bp (dsDNA)
DNA 1: CCTGAAAGAATGAATGAATGAATGCCTCGG
DNA 2: CCGAGGCATTCATTCATTCATTCTTTCAGG
B2: Mut-DNMT1(nt-240) EMSA probe, 30 bp (dsDNA)
DNA 1: CCTGAAAGTTTGTTTGTTTGTTTGCCTCGG
DNA 2: CCGAGGCAAACAAACAAACAAACTTTCAGG

Target: ZNF191 (zinc finger protein 191) (UniProt P17028 1-368)
Test: EMSA; LightShift Chemiluminescent EMSA kit (Pierce); buffer, salt, pH and temperature not given; unlabeled oligonucleotides used for competition, outcome not given
Conditions: protein: recombinant; label: 5' biotin; blunt

ZNF191 (zinc finger protein 191), sequence (P17028 whole entry): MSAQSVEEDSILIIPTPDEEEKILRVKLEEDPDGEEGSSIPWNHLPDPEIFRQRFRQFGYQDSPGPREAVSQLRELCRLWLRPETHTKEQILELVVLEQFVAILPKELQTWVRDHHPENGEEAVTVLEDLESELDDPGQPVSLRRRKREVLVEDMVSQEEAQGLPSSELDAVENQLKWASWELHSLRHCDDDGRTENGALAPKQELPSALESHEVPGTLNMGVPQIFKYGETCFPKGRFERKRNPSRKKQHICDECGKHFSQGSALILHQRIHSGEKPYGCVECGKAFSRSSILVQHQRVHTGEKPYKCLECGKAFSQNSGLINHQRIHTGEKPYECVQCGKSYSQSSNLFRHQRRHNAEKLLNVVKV

| Binder | binding result |
| --- | --- |
| B1 | binds |
| B2 | no binding |
